Measured values as given in patent EP2283866A2.

Target: human HER2 (ErbB2) (human) (UniProt P04626)
Assay: cell-based or functional assay

**Q.** With “murine monoclonal antibody 4D5 (ATCC CRL 10463)” as the substance, how does the inhibition of SK-BR-3 relative cell proliferation (crystal violet, 72 h, 5 ug/ml antibody) read?
**A.** 56%

**Q.** And the maximum inhibition of cell proliferation in SK-BR-3 cells?
**A.** 66%
